Legend:
[1] = target: Recombinant Human Axl Protein Axl-tag 5 (human) (UniProt P30530); assay: competition ELISA on immobilized Axl-tag 5; unlabeled antibody 50 ug/mL; competitor Biot-v77-2a37.1 1 ug/mL
[2] = target: Recombinant Human Axl Protein Axl-tag 5 (human) (UniProt P30530); assay: competition ELISA on immobilized Axl-tag 5; unlabeled antibody 50 ug/mL; competitor Biot-M77-297b81.1.1 1 ug/mL (signal is of the biotinylated antibody)
[3] = target: Recombinant Human Axl Protein Axl-tag 5 (human) (UniProt P30530); assay: competition ELISA on immobilized Axl-tag 5; unlabeled antibody 50 ug/mL; competitor Biot-M77-297b81.1.1 1 ug/mL
[4] = target: Recombinant Human Axl Protein Axl-tag 5 (human) (UniProt P30530); assay: competition ELISA on immobilized Axl-tag 5; unlabeled antibody 50 ug/mL; competitor Biot-v77-2a37.1 1 ug/mL (signal is of the biotinylated antibody)

Sequence of UniProt P30530 (P30530 26-451): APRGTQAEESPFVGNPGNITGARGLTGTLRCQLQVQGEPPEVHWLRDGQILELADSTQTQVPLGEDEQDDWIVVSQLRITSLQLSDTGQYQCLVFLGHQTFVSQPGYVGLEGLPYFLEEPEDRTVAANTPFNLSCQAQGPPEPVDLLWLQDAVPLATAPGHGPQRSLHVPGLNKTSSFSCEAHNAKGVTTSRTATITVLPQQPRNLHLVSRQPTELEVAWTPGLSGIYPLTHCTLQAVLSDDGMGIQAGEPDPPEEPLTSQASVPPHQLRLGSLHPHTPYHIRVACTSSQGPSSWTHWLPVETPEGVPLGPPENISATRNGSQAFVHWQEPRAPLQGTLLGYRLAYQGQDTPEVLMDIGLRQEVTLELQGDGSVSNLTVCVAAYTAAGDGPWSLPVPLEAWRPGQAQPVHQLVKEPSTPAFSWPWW

AXL(C89E7) rabbit anti-human Axl monoclonal antibody (Cell Signaling)
% competition [1]: 3.3%
OD (650 nm) [2]: 2.13 OD (650 nm)
% competition [3]: 1.5%
OD (650 nm) [4]: 1.81 OD (650 nm)

Source: patent publication US20240076390A1
